Laboratory results from patent publication US20250361544A1, “TYPE III-D CRISPR-CAS SYSTEM AND USES THEREOF” (BOARD OF REGENTS, THE UNIVERSITY OF TEXAS SYSTEM, published 2025).

How the values were obtained:
[1] = target: T1, Type III-Dv subunits co-expressed without Csx19 (Cas7-Cas5-Cas11, Cas7-2x and Cas7-insertion, with crRNA) (Synechocystis sp. PCC 6803); assay: His-tag affinity purification and SEC of the ΔCsx19 co-expression; SDS-PAGE
T1 construct: These are the subunits left beside His-tagged Cas10 when csx19 carries a nonsense mutation (pPF3089); they are grouped here only as the prey set of the ΔCsx19 pulldown; also called ΔCsx19 complex; ΔCsx19 type Type III-Dv complex
T1 sequence (chain, as listed by the source limits assumed, chain 2 of 3, one chain of several): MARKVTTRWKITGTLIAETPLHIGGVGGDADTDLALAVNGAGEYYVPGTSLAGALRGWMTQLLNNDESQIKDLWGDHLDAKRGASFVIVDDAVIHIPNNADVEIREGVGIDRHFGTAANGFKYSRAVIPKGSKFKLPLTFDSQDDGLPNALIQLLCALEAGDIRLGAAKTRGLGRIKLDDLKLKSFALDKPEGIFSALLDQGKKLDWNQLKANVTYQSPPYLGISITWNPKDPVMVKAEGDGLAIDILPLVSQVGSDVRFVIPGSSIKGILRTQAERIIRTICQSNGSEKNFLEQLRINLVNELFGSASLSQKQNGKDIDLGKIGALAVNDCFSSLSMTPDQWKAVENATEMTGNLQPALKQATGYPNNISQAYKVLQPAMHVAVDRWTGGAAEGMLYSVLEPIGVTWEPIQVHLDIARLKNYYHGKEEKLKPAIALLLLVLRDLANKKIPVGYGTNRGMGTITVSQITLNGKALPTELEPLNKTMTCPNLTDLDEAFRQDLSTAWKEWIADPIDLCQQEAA
T1 sequence (chain, as listed by the source limits assumed, chain 3 of 3, one chain of several): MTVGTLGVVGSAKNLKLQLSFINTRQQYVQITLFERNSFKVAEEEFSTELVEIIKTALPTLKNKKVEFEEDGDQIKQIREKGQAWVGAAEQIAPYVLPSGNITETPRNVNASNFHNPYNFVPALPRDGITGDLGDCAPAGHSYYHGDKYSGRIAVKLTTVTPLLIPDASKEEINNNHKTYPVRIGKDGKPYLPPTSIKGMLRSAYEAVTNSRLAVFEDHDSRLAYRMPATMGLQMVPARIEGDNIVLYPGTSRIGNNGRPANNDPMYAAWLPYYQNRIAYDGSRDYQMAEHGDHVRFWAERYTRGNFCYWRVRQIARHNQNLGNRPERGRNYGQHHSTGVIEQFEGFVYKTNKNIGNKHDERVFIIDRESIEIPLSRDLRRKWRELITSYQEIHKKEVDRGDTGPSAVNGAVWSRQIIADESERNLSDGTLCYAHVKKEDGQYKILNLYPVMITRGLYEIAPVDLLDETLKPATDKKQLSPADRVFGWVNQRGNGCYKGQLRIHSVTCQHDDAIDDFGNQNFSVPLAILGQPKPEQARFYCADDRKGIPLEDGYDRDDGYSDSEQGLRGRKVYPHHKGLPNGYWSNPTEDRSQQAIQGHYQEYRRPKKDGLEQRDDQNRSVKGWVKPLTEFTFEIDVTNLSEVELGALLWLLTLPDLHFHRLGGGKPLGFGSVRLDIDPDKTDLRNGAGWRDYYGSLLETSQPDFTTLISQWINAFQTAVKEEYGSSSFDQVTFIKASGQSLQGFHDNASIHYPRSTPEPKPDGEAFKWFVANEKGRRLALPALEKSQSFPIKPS

[2] = target: T2, Cas7-Cas5-Cas11 fusion subunit of the Synechocystis sp. PCC 6803 Type III-Dv complex (Synechocystis sp. PCC 6803); assay: co-purification by metal affinity (His6-Cas10) and SEC; SDS-PAGE and MS; membership of one complex
T2 construct: Untagged, co-expressed from pPF2434 in E. coli; one copy in the complex; also called Cas7-5-11; Cas5-Cas7-Cas11
T2 chain: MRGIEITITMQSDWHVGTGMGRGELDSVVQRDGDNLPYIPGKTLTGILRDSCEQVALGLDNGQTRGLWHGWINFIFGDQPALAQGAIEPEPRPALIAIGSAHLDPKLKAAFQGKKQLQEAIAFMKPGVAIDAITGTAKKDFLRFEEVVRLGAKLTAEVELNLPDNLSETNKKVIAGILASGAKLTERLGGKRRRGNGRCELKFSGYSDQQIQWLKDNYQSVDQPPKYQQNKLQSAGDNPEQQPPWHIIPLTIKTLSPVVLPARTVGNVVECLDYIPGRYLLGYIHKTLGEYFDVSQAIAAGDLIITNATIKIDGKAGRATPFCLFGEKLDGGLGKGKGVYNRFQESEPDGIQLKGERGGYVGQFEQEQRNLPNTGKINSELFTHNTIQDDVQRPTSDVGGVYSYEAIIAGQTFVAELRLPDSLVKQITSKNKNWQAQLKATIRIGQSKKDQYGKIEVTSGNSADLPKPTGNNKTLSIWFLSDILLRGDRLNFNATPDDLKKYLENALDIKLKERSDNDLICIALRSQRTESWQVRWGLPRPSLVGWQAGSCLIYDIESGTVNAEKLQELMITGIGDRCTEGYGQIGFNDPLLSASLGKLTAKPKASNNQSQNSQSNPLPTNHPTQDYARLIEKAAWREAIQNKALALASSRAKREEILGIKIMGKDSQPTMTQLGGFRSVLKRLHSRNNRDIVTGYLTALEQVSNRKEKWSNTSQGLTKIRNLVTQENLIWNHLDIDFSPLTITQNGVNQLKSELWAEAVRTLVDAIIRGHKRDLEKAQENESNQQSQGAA
Experimental: Cells were lysed by a French pressure cell press (American Industry Company) at 10,000 psi, and the lysate was clarified by centrifugation at 15,000×g for 15 min. […] The fractions containing the Type III-Dv complex were pooled and treated with TEV protease and incubated at 4° C. during overnight dialysis in SEC buffer (10 mM HEPES-NaOH, PH 7.5, 100 mM KCl, 5% Glycerol, 1 mM DTT). The sample was applied to a second HisTrap column; however, due to inefficient TEV cleavage, the complex unexpectedly bound the column and eluted with high imidazole. The complex was further purified by size exclusion chromatography (SEC) on a HiLoad 16/600 Superdex 200 column (GE Healthcare) equilibrated in SEC Buffer). Mutant Type III-Dv complexes were similarly expressed and purified, except TEV protease was omitted. Purified complexes were typically concentrated to 1.5 mg/ml using a centrifugal concentrator (Amicon; 100 kDa MWCO), aliquoted, and stored at −80° C.
Denaturing liquid chromatography mass spectrometry (LC-MS) was performed on a Dionex UltiMate 3000 nanoLC system coupled to a Thermo Orbitrap Fusion Lumos Tribrid mass spectrometer (San Jose, Ca). The trap column (3 cm) and analytical column (30 cm) were packed in-house with polymer reverse-phase (PLRP) packing material. […]

binding result [1]: no binding
binding result [2]: binds
B1: Cas10 subunit of the Synechocystis sp. PCC 6803 Type III-Dv CRISPR-Cas complex, with N-terminal His6 tag and TEV site (other)
chain: MFLVLIETSGNQHFIFSTNKLRENIGASELTYLATTEILFQGVDRVFQTNYYDQWSDTNSLNFLADSKLNPAIDDPKNNADIEILLATSGKAIALVKEEGKAKQLIKEVTKQALINAPGLEIGGIYVNCNWQDKLGVAKAVKEAHKQFEVNRAKRAGANGRFLRLPIAAGCSVSELPASDFDYNADGDKIPVSTVSKVKRETAKSAKKRLRSVDGRLVNDLAQLEKSFDELDWLAVVHADGNGLGQILLSLEKYIGEQTNRNYIDKYRRLSLALDNCTINAFKMAIAVFKEDSKKIDLPIVPLILGGDDLTVICRGDYALEFTREFLEAFEGQTETHDDIKVIAQKAFGVDRLSACAGISIIKPHFPFSVAYTLAERLIKSAKEVKQKVTVTNSSPITPFPCSAIDFHILYDSSGIDFDRIREKLRPEDNTELYNRPYVVTAAENLSQAQGYEWSQAHSLQTLADRVSYLRSEDGEGKSALPSSQSHALRTALYLEKNEADAQYSLISQRYKILKNFAEDGENKSLFHLENGKYVTRFLDALDAKDFFANANHKNQGE
notes: Whole gene amplified from Synechocystis genomic DNA and co-expressed in E. coli from pPF2434; The complex also holds a 37-nt crRNA; also called His6-TEV-Cas10; N-His6-tagged Cas10; not shown: TEV cleavage was inefficient, so
